In US20260091143A1, “NEAR-INFRARED IMAGING AGENT AND USES THEREOF” (CASE WESTERN RESERVE UNIVERSITY, priority 2022, published 2026):
Where a SMILES comes first, the peptide text is derived from it. Where no end group is shown, it is not given here. The star is where a group is joined. X1 = CC1(C)C(/C=C/C=C/C=C/C=C2/N(CCCCCC(=O)*)c3ccc4ccccc4c3C2(C)C)=[N+](CCCCS(=O)(=O)[O-])c2ccc3ccccc3c21; Tide Fluor 8WS = fluorophore acid, coupled by amide to the N-terminal amine

How the values were obtained:
[1] = Whole-body and ventral fluorescent imaging of biodistribution and clearance; type: in vivo, mice
From the text: (§1) The IVIS Spectrum In vivo Imaging System and Living Image analysis software, (Perkin Elmer, Hopkinton, MA, USA) were used for acquisition and analysis of mouse images. Prior to the experiment, mice were weighed, and baseline images acquired using the appropriate filter sets and the autoexposure setting. Three filter sets for excitation/emission were used: 745 nm/800 nm, 745 nm/820 nm, 745 nm/840 nm. The filter set showing highest fluorescence intensity for a fluorophore was used throughout for that dye. For ICG, 745 nm/820 nm was used and for IRDye® 800CW and Tide Fluor™ 8WS, 745 nm/800 nm was used. Agent stocks were diluted in saline or PBS to ˜100 μM and the volume needed for the desired dose of 300 nmol/kg or 400 nmol/kg calculated. Doses were loaded into polyurethane tubing and connected to a 1 mL syringe as previously described. Mice were anesthetized in an induction chamber with 2% isoflurane-oxygen and moved onto a 37° C. heated platform with a nose cone. 26-gauge veterinary catheters were placed in each tail and the preloaded tubing was connected. Agents were injected over 30 sec, catheters were removed, and animals placed in the prepared Spectrum imaging chamber. Images were acquired beginning 10 min after injecting the agents. For SBK2-CCLE-IR800 and Scram-CCLE-IR800, images were acquired every 10 min for 60 min. For the ICG-labeled and TF8WS-labeled peptides, images were acquired at 10 min, 30 min, 1 h, 2 h, 4 h, 8 h, and 24 h. At the end of the imaging time, the animals were euthanized by CO2 asphyxiation, and the tumor and other organs excised and imaged on the Spectrum.

[2] = Ex vivo fluorescence in excised kidneys, spleen and liver; set-up: species or system mice; details: 24 h; for p-value, average radiant efficiency of excised kidney vs SBK2-CLE-ICG / p-value, average radiant efficiency of excised kidney vs SBK2-ICG / p-value, average radiant efficiency of excised kidney vs Scram-CLE-ICG / p-value, average radiant efficiency of excised liver vs SBK2-CLE-ICG / p-value, average radiant efficiency of excised liver vs SBK2-ICG / p-value, average radiant efficiency of excised liver vs Scram-CLE-ICG / p-value, average radiant efficiency of excised spleen vs SBK2-CLE-ICG / p-value, average radiant efficiency of excised spleen vs SBK2-ICG / p-value, average radiant efficiency of excised spleen vs Scram-CLE-ICG / p-value, average radiant efficiency of excised kidney vs Scram-ICG / p-value, average radiant efficiency of excised liver vs Scram-ICG / p-value, average radiant efficiency of excised spleen vs Scram-ICG: ICG-labeled agents 300 nmol/kg, ICG 400 nmol/kg, Welch's t-test
From the text: as §1
(§2) Living Image analysis software was used for region of interest (ROI) analysis of the optical data. Images acquired for each time point consist of a fluorescent image superimposed on a photographic image. Binning was set to 1 and in vivo tumor ROIs were manually drawn based on contours visible in the black and white photograph for each timepoint. After outlining the tumor ROIs, fluorescence was measured with the built-in Spectrum function. For excised tumors, kidneys, spleen and liver, ROIs were drawn around the perimeter of the tumor or organ.
(§3) LivingImage software measures fluorescence intensity in units of radiant efficiency. For these analyses, average radiant efficiency measurements in (photons/s/cm^2/steradian)/(μW/cm^2) were used for further comparisons to account for differences in tumor and organ size. GraphPad Prism 9 was used for plots and statistical analyses. Where indicated, means for pairs of agents were compared using a two-tailed t-test with Welch's correction and statistical significance was assumed at p<0.05. Welch's correction was used to eliminate assumptions about variance between the groups being compared.

[3] = tested on: LN-229 glioma flank tumor; assay: In vivo fluorescent imaging of tumor signal in LN-229 flank tumor-bearing nude mice; details: 400 nmol/kg
From the text: All applicable institutional and/or NIH guidelines for the care and use of animals were followed. The Case Western Reserve University Institutional Animal Care and Use Committee reviewed and approved the animal protocols. Outbred homozygous female nude mice (Fox1^nu/Fox1^nu) were purchased from Jackson Laboratory, Bar Harbor, ME, USA. Details of the human glioblastoma LN-229 cell line have been described previously. LN-229 cells express the PTPμ biomarker and have been used in previous studies for evaluating PTPμ-targeted agents using different imaging modalities. Flank tumors were started in the right flank of mice at approximately 7 weeks of age by injecting a mixture of 2×10^6 cells and Matrigel® Matrix (Corning®, Corning Inc., Corning, NY, USA). Experiments were performed in mice 4 to 8 weeks after implanting the tumors.
as §1, §2, §3

Compound | p-value, average radiant efficiency of excised kidney vs SBK2-CLE-ICG [2] | p-value, average radiant efficiency of excised kidney vs SBK2-ICG [2] | p-value, average radiant efficiency of excised kidney vs Scram-CLE-ICG [2] | p-value, average radiant efficiency of excised liver vs SBK2-CLE-ICG [2] | p-value, average radiant efficiency of excised liver vs SBK2-ICG [2] | p-value, average radiant efficiency of excised liver vs Scram-CLE-ICG [2] | p-value, average radiant efficiency of excised spleen vs SBK2-CLE-ICG [2] | p-value, average radiant efficiency of excised spleen vs SBK2-ICG [2] | p-value, average radiant efficiency of excised spleen vs Scram-CLE-ICG [2] | p-value, average radiant efficiency of excised kidney vs Scram-ICG [2] | p-value, average radiant efficiency of excised liver vs Scram-ICG [2] | p-value, average radiant efficiency of excised spleen vs Scram-ICG [2] | also measured
CC(C)C[C@H](NC(=O)[C@H](CC(=O)O)NC(=O)[C@H](CC(N)=O)NC(=O)[C@H](CC(=O)O)NC(=O)[C@@H](NC(=O)CNC(=O)[C@@H](NC(=O)[C@H](CCC(=O)O)NC(=O)[C@@H]1CCCN1C(=O)[C@H](CCC(N)=O)NC(=O)[C@@H](NC(=O)[C@H](Cc1ccccc1)NC(=O)CNC(=O)CCCCCN1/C(=C/C=C/C=C/C=C/C2=[N+](CCCCS(=O)(=O)[O-])c3ccc4ccccc4c3C2(C)C)C(C)(C)c2c1ccc1ccccc21)[C@@H](C)O)[C@@H](C)O)[C@@H](C)O)C(=O)N[C@@H](Cc1c[nH]c2ccccc12)C(=O)N[C@@H](CO)C(=O)N[C@H](C(=O)N[C@@H](CC(=O)O)C(=O)N[C@@H](CC(N)=O)C(=O)N[C@@H](CCC(=O)O)C(=O)N[C@@H](CCCCN)C(=O)O)C(C)C [Scram-ICG] (X1-GFTQPETGTDNDLWSVDNEK-OH) | ns | <0.001 | ns | ns | <0.001 | ns | ns | <0.001 | ns |  |  |  | clearance compared to either of the CLE-containing agents ([1]; 400 nmol/kg, 24 h): clear more slowly
CC(C)C[C@H](NC(=O)[C@@H](NC(=O)[C@H](CC(N)=O)NC(=O)[C@@H](NC(=O)[C@H](CCC(N)=O)NC(=O)[C@H](CCC(=O)O)NC(=O)[C@H](Cc1c[nH]c2ccccc12)NC(=O)[C@H](CC(N)=O)NC(=O)[C@H](Cc1ccccc1)NC(=O)[C@H](CC(=O)O)NC(=O)[C@H](CC(=O)O)NC(=O)CNC(=O)[C@H](CCC(=O)O)NC(=O)CNC(=O)[C@H](CO)NC(=O)CNC(=O)CNC(=O)[C@H](CO)NC(=O)CNC(=O)CNC(=O)CCCCCN1/C(=C/C=C/C=C/C=C/C2=[N+](CCCCS(=O)(=O)[O-])c3ccc4ccccc4c3C2(C)C)C(C)(C)c2c1ccc1ccccc21)C(C)C)[C@@H](C)O)C(=O)N[C@H](C(=O)N[C@@H](CCCCN)C(=O)N1CCC[C@H]1C(=O)N[C@H](C(=O)N[C@@H](CO)C(=O)N[C@@H](CC(=O)O)C(=O)O)[C@@H](C)O)[C@@H](C)O [SBK2-CLE-ICG] (X1-GGSGGSGEGDDFNWEQVNTLTKPTSD-OH) |  | <0.001 | 0.034 |  | <0.001 | ns |  | <0.001 | 0.015 | ns | ns | ns | clearance compared to SBK2-ICG ([1]; mouse, in vivo): cleared more rapidly
CC(C)C[C@H](NC(=O)[C@@H](NC(=O)[C@H](CC(N)=O)NC(=O)[C@@H](NC(=O)[C@H](CCC(N)=O)NC(=O)[C@H](CCC(=O)O)NC(=O)[C@H](Cc1c[nH]c2ccccc12)NC(=O)[C@H](CC(N)=O)NC(=O)[C@H](Cc1ccccc1)NC(=O)[C@H](CC(=O)O)NC(=O)[C@H](CC(=O)O)NC(=O)CNC(=O)[C@H](CCC(=O)O)NC(=O)CNC(=O)CCCCCN1/C(=C/C=C/C=C/C=C/C2=[N+](CCCCS(=O)(=O)[O-])c3ccc4ccccc4c3C2(C)C)C(C)(C)c2c1ccc1ccccc21)C(C)C)[C@@H](C)O)C(=O)N[C@H](C(=O)N[C@@H](CCCCN)C(=O)N1CCC[C@H]1C(=O)N[C@H](C(=O)N[C@@H](CO)C(=O)N[C@@H](CC(=O)O)C(=O)O)[C@@H](C)O)[C@@H](C)O [SBK2-ICG] (X1-GEGDDFNWEQVNTLTKPTSD-OH) | <0.001 |  | <0.001 | <0.001 |  | <0.001 | <0.001 |  | <0.001 | <0.001 | <0.001 | <0.001 | 
Scram-TF8WS: Tide Fluor 8WS conjugated to N-terminus of Scrambled control peptide (SEQ ID NO: 48) ({Tide Fluor 8WS}-GFTQPETGTDNDLWSVDNEK) |  |  |  |  |  |  |  |  |  |  |  |  | tumor signal at 24 h (not specific for PTPμ) [3]: high tumor-specific signal
SBK2-TF8WS: Tide Fluor 8WS conjugated via amide to N-terminus of SBK2 peptide (SEQ ID NO: 5) ({Tide Fluor 8WS}-GEGDDFNWEQVNTLTKPTSD) |  |  |  |  |  |  |  |  |  |  |  |  | tumor signal at 24 h (not specific for PTPμ) [3]: high tumor-specific signal; difference in in vivo tumor average radiant efficiency vs Scram-TF8WS ([3]; at any time out to 24 h): No significant differences; specific tumor labeling ([3]; versus Scrambled control agents): no specific tumor labeling; difference in average radiant efficiency in kidney, spleen, or liver vs Scram-TF8WS ([2]; 400 nmol/kg): no significant differences
CC1(C)C(=CC=C2CCCC(C=CC3=[N+](CCCCCC(=O)[O-])c4ccc(S(=O)(=O)[O-])cc4C3(C)C)=C2Oc2ccc(S(=O)(=O)[O-])cc2)N(CCCCS(=O)(=O)[O-])c2ccc(S(=O)(=O)[O-])cc21.[Na+].[Na+].[Na+].[Na+] [IRDye® 800CW] |  |  |  |  |  |  |  |  |  |  |  |  | clearance compared to the peptide-containing agents ([1]; dye only, data not shown): cleared more slowly; overall body fluorescence compared to IRDye 800CW-labeled peptides at the same dose ([1]; dye only, data not shown): more overall fluorescence throughout the body
CC(C)C[C@H](NC(=O)[C@H](CC(=O)O)NC(=O)[C@H](CC(N)=O)NC(=O)[C@H](CC(=O)O)NC(=O)[C@@H](NC(=O)CNC(=O)[C@@H](NC(=O)[C@H](CCC(=O)O)NC(=O)[C@@H]1CCCN1C(=O)[C@H](CCC(N)=O)NC(=O)[C@@H](NC(=O)[C@H](Cc1ccccc1)NC(=O)CNC(=O)[C@H](CO)NC(=O)CNC(=O)CNC(=O)[C@H](CO)NC(=O)CNC(=O)CNC(=O)CCCCCN1/C(=C/C=C/C=C/C=C/C2=[N+](CCCCS(=O)(=O)[O-])c3ccc4ccccc4c3C2(C)C)C(C)(C)c2c1ccc1ccccc21)[C@@H](C)O)[C@@H](C)O)[C@@H](C)O)C(=O)N[C@@H](Cc1c[nH]c2ccccc12)C(=O)N[C@@H](CO)C(=O)N[C@H](C(=O)N[C@@H](CC(=O)O)C(=O)N[C@@H](CC(N)=O)C(=O)N[C@@H](CCC(=O)O)C(=O)N[C@@H](CCCCN)C(=O)O)C(C)C [Scram-CLE-ICG] (X1-GGSGGSGFTQPETGTDNDLWSVDNEK-OH) | 0.034 | <0.001 |  | ns | <0.001 |  | 0.015 | <0.001 |  | ns | ns | ns | 
